Results reported in patent US20080274480A1.

Target: BoNT/A receptor on mouse brain synaptosomes (mouse)

inactive BoNT/A toxin (formaldehyde-inactivated BoNT/A, Metabiologics, Inc.), unlabeled (from UniProt P0DPI1 2-1296)
IC50: 13 nM | percent inhibition: 100% | percent inhibition at 2.0 µg: 98%
